Data on two molecules can be found in patent US20240117056A1 (IBIO, published 2024).

One may read the EC50 as the concentration needed to bring the measured effect to its halfway point. One may read the Kd as the concentration at which binding is half-saturated. The koff is the rate constant with which the complex falls apart. By kon is commonly meant the second-order rate constant of association.

The target of test [1] is T1, human EGFRvIII overexpressed on cells (F98npEGFRvIII, U87MG-EGFRvIII, FaDu-EGFRvIII) (human, UniProt P00533 25-1210). The test can be described thus: cell-based or functional assay.
For test [2], the target named is T2, human EGFR, purified recombinant protein (Acro Biosystems Cat #EGR-H5222) (human, UniProt P00533 25-645).
T2 construct: Bought protein; also called EGFR1; full length human EGFR1
In words: SPR (Carterra LSA), antibody captured on anti-human IgG, EGFR1 injected in a 5-fold series from 500 nM.

In test [3] the target is T3, human EGFRvIII, purified recombinant protein (Acro Biosystems Cat #EGI-H52H4) (human, UniProt P00533 25-645).
T3 construct: Bought protein; the deletion must be applied; also called truncated human EGFRvIII; huEGFRvIII
The test can be described thus: ELISA, antigen coated at 1 ug/mL, anti-human IgG-HRP, n=3. A general note: An ELISA detects its analyte on a solid surface through an enzyme-linked reagent.

Test [4] addresses T1, human EGFRvIII overexpressed on cells …. The test can be described thus: flow cytometry, FaDu-EGFRvIII cells, n=3. (In general: In flow cytometry, cells or beads pass a laser one at a time.)
Test [5] shares this target. In words: flow cytometry, U87MG-EGFRvIII cells, n=3.
The target in test [6] is T4, wild type human EGFR1 on cells (F98 EGFR1; wild type U87MG; wild type FaDu) (human, UniProt P00533 25-1210).
T4 construct: whole, on cells
The test can be described thus: flow cytometry on wild type U87MG cells, anti-human IgG Fc Alexa Fluor 647, MFI.

The target of test [7] is T3, human EGFRvIII, purified recombinant …. The test can be described thus: SPR (Carterra LSA), antibody captured on anti-human IgG, antigen injected, 1:1 Langmuir fit.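 Also: EGFRvIII injected at five concentrations, fivefold serial dilution starting 500 nM, 5 min association then 15 min dissociation, double-referenced against interspot and buffer blank signals, global kinetic fit.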
For test [8], the target named is T1, human EGFRvIII overexpressed on cells …. In words: cell-based or functional assay. The source holds these as a separate data set.
Test [9] has as its target T2, human EGFR, purified recombinant …. In words: ELISA, plate coated with human EGFR1, anti-human IgG-HRP, OD450.

Numbering of substitutions follows the chain as printed.

B1: SD-127612-afuc (antibody, V domains shown)
VH: QVQLVQSGAEVKKPGASVKVSCKASGYTFTSYDINWVRQAPGQRLEWMGWIFPGDGTSKYNEKFKGRVTITRDTSASTAYMELSSLRSEDTAVYYCARRLGSHWGQGTLVTVSS
VL: DIVLTQSPDSLAVSPGERATISCKASQSVDSDGDSYMNWYQQKPGQPPKLLIYGASNLESGVPDRFSGSGSGTDFTLTISRVEAEDVAVYYCQQSHEYPFTFGGGTKLEIK
notes: afucosylated (FUT8 knock-out CHO)
On to B1, for which the “ADCC EC50 (nM), FaDu-EGFRvIII cells with PBMC” value in [1] worked out at 0.0051 nM. For the same molecule, the binding result in test [2] and in test [6] was “no binding” throughout. Besides, the EC50 is 0.156 nM in test [3], 5.27 nM in [4] and 6.05 nM in test [5]. Moreover, in test [7], the Kd amounted to 57 nM. In addition, in [7], the koff worked out at 0.0024 s⁻¹. The kon in test [7] came out at 42000 M⁻¹ s⁻¹. Besides, the “ADCC EC50 (nM), U87MG-EGFRvIII cells with PBMC” value in test [8] amounted to 0.0047 nM.

B2: SD-649072-afuc (antibody, V domains shown)
VH: B1 VH with S102T, H103V
VL: B1 VL with D9A, E17Q, S22T, D64A, S80N, R81P, E85N, V87T, V89N, G104Q
notes: as for B1
As for B2, the “ADCC EC50 (nM), FaDu-EGFRvIII cells with PBMC” value in [1] amounted to 0.0033 nM. Also, the binding result in [9] and in test [6] was “no binding” in each case. Moreover, the EC50 in test [3] was 0.129 nM; in [4], 3.86 nM; in [5], 4.33 nM. In addition, in test [7], the Kd is 33 nM. Besides, the koff in test [7] amounted to 0.0017 s⁻¹. Further, the kon in test [7] is 51000 M⁻¹ s⁻¹. Moreover, the “ADCC EC50 (nM), U87MG-EGFRvIII cells with PBMC” value in test [8] stood at 0.0066 nM.
